The values that follow come from patent US20230272056A1 (Merck Sharp & Dohme, published 2023).

Test [1] deals with T1, human LAP-TGFβ1 (construct not stated) (human, UniProt P01137 30-390).
T1 construct: also called human LAP-TGFβ isoform 1; titrant
Nature of the test: KinExA, Fab as constant binding partner. As for the experimental part:
An orthogonal kinetic exclusion assay (KinExA) method was used in this study to measure the affinity of an affinity-matured anti-LAP-TGF β1 Fab 69BJN (referred to as the constant binding partner, CBP) and human LAP-TGFβ1 (referred to as the titrant). […] Two equilibrium experiments were prepared in assay buffer (1× PBS, 1 mg/mL BSA, and 0.05% NaN₃) with 5 pM or 100 pM of 69BJN as CBP followed by mixing and equilibrating with 1:10 serially diluted human LAP-TGFβ1 from 10 nM to 1 pM including a negative control 0 nM. The KinExA method was performed as follows: PMMA beads were loaded into the flow cell, a single concentration of titrant human LAP-TGFβ1 at equilibrium with 69BJN CBP was flowed over the flow cell, free CBP bound by PMMA beads was detected with rabbit anti-human IgG, F(ab′)₂ fragment specific-647 conjugate (Jackson Immunoresearch, catalog 309-005-006). This method was repeated in duplicate over the entire concentration series for each of the two different equilibrium series. The binding signals were analyzed with KinExA Pro software (version 4.4.26) where the free CBP binding signals were converted into percent free response and plotted against the titrant concentration series. The equilibrium KD was determined by using the titrant concentration as a reference and calculating percent activity of the ligand (CBP).
On the technique in general: A kinetic exclusion assay measures how much of one partner remains free in solution.

Test [2] addresses T2, human LAP-TGFB1 Fc fusion (human).
T2 construct: also called human LAP-TGFβ1-Fc; human LAP-TGFβ-Fc isoform 1
Nature of the test: SPR, antigen-Fc captured, Fab analyte. The gist of the method: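 Surface plasmon resonance on a Biacore T200 measured how Fab fragments bind human LAP-TGFβ fused to Fc. The Fc protein was captured on a Series S CM4 chip carrying immobilized anti-human Fc antibody, with Fab injected as analyte in 1× HBS-EP+. Signals were double referenced, and rate constants came from a 1:1 binding fit.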

The target of test [3] is T3, human LAP-TGFB3 Fc fusion (human).
T3 construct: also called human LAP-TGFβ3; LAP-TGFβ isoform 3
T3 sequence (chain, as listed by the source limits assumed): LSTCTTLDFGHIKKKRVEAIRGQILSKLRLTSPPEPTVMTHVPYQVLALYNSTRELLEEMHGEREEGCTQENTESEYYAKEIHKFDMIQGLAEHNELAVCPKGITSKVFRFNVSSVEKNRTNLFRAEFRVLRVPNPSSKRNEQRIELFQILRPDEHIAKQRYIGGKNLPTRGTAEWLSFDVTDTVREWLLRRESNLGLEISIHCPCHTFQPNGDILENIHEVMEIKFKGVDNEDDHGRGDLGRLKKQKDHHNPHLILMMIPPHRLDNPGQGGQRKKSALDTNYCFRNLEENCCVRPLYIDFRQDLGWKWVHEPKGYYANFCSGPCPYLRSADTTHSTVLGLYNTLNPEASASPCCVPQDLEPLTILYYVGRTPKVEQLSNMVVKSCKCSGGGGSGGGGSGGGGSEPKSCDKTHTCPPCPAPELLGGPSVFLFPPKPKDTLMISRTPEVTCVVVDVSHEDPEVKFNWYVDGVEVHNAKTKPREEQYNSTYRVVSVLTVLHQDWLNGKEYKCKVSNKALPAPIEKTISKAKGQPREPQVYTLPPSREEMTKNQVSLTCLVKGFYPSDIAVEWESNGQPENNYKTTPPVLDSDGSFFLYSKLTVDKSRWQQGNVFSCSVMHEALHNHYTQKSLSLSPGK
Nature of the test: SPR. An excerpt: (§1) This Example describes the isoform specificity of the yeast display mutants to bind to human LAP-TGFβ isoforms 1, 2, and 3 using surface plasmon resonance. A Series S CM4 sensor chip (GE Healthcare, catalog BR100534) was immobilized with an anti-human Fc capture antibody following the kit protocol (GE Healthcare, catalog BR100839) on a Biacore T200 instrument with 1× HBS-EP+ (Teknova, catalog H8022). […] Binding specificity experiments between human LAP-TGFβ isoforms 2 and 3 and yeast display mutants were performed in 1× HBS-EP+ with 0.1 mg/mL BSA at 25° C. Approximately 20-40 RU amounts of human LAP-TGFβ2 and 3 were captured to the anti-human Fc surface followed by injection of 1000 nM Fab including a negative control 0 nM Fab. The binding data were double referenced by subtraction of signal from a reference (capture surface only) flow cell and the negative control 0 nM Fab injection. Binding rate constants were determined by fitting the data with a 1:1 binding model (GE Healthcare Biacore T200 Evaluation software 3.0).
On the technique in general: SPR reads the build-up and loss of mass on a sensor chip optically.

Test [4] deals with T4, human LAP-TGFB2 Fc fusion (human).
T4 construct: also called human LAP-TGFβ2; LAP-TGFβ isoform 2
T4 sequence (chain, as listed by the source limits assumed): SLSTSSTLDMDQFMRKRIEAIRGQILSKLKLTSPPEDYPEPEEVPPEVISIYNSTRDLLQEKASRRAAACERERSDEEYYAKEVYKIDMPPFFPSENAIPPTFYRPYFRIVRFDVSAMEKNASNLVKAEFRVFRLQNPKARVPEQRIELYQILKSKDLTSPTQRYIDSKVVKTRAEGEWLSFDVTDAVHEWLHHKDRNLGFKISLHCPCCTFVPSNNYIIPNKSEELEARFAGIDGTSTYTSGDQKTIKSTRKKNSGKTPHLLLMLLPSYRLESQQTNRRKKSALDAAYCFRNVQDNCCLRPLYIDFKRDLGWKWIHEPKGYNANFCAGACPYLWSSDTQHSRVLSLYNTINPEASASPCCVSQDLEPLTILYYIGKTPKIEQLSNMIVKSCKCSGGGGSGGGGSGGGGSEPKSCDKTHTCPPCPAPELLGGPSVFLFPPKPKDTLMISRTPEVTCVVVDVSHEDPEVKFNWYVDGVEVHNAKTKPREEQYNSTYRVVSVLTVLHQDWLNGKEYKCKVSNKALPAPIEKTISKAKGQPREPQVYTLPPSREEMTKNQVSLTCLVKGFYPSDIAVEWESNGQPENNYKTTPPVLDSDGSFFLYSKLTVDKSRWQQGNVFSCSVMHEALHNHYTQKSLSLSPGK
Nature of the test: SPR.
Description: as §1

T2 sequence (chain, as listed by the source limits assumed): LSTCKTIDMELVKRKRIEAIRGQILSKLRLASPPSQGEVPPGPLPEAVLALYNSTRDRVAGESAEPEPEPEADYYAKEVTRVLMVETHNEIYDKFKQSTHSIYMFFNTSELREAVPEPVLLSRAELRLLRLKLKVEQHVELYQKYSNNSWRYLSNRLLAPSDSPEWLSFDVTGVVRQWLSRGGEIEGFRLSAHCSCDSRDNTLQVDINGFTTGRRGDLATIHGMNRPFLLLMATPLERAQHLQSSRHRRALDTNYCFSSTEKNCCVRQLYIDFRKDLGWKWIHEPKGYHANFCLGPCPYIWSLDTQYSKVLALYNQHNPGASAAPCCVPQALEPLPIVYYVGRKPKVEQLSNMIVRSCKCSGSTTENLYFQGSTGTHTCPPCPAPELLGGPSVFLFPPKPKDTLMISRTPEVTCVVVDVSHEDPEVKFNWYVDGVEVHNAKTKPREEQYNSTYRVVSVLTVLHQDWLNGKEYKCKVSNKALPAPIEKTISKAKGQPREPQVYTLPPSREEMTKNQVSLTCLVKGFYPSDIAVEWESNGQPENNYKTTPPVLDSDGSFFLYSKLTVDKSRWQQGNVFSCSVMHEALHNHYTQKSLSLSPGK
T1 sequence (P01137 30-390 limits assumed): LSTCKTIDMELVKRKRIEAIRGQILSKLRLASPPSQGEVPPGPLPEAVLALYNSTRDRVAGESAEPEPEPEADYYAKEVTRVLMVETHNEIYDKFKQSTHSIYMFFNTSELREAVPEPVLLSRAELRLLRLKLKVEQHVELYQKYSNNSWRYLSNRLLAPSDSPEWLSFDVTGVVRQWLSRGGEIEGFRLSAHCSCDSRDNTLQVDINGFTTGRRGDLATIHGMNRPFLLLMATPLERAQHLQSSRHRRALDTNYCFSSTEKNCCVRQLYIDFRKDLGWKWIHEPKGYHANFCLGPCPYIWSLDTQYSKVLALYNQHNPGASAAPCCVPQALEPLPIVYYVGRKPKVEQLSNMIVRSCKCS

B1: 69BJN (Fab, V domains shown)
VH: EVQLVQSGAEVKKPGASVKVSCKASGYTFTSYDMHWVRQAPGQGLEWMGRIDPQSGGTKYAQKFQGRATLTVDTSTSTAYMELSRLRSDDTAVYYCARWDYGGYFDVWGQGTLVTVSS
VL: DIQMTQSPSSLSASVGDRVTITCRASQDIYNYLNWYQQKPGKAVKLLIYYTSVLHSGVPSRFSGSGSGTDYTLTISSLQPEDFATYFCQQGDTLPWTFGQGTKLEIKR
notes: also called VH W33D I58T / VL T30Y R53V (69BJN)
A word on the Kd: it is a measure of binding affinity in units of concentration. Read a low Kd as tighter binding. The koff is the rate constant with which the complex falls apart. Higher therefore signals fast dissociation. Usually kon stands for the second-order rate constant of association. High values mean faster complex formation, low ones slower complex formation. Take B1: the Kd in test [1] came out at 0.028 nM. In test [2], the “Fold improvement in KD” value came to 695 fold, binding was put at a Kd of 0.115 nM, the off-rate constant (koff) turned out to be 0.000488 s⁻¹ and the kon turned out to be 4.25e+06 M⁻¹ s⁻¹. For the same molecule, the binding result in test [3] is reported as “no binding (tested: 1000 nM Fab)”. In addition, the binding result in test [4] is recorded as “no binding (tested: 1000 nM Fab)”.
